Results reported in patent US20250090699A1, “FAP TARGETING CYCLIC PEPTIDES AND CONJUGATES THEREOF” (Novartis AG, priority 2023, published 2025).
Starred links: 1 amine or outer side, 2 acyl side, 3 side chain; linkers in the order of their positions; H or OH if unused. Non-standard residues stand in square brackets, D forms with d. *: point of attachment. F(4amPEG2NHDOTA-Lu) = lutetium complex of (S)-2,2',2''-(10-(1-(4-(2-amino-2-carboxyethyl)phenyl)-3,12-dioxo-5,8-dioxa-2,11-diazatridecan-13-yl)-1,4,7,10-tetraazacyclododecane-1,4,7-triyl)triacetic acid (Phe with 4-aminomethyl-PEG2-DOTA-Lu), O=C([O-])CN1CCN(CC(=O)[O-])CCN(CC(=O)NCCOCCOCC(=O)NCc2ccc(C[C@H](N[*:1])C(=O)[*:2])cc2)CCN(CC(=O)[O-])CC1.[Lu+3]; Q(Pyrro(2CN4F2)) = 2-amino-5-(2-cyano-4,4-difluoropyrrolidin-1-yl)-5-oxopentanoic acid; COpipzaa = 4-(carboxymethyl)piperazine-1-carbonyl, O=C(O)CN1CCN(C(=O)*)CC1; DOTA(Lu) = O=C1CN2CCN3CCN(CC(=O)*)CCN(CC2)CC(=O)[O][Lu]([O]1)[O]C(=O)C3; hS(Pr) = O-propyl-L-homoserine, CCCOCC[C@H](N[*:1])C(=O)[*:2]; NMeF = CN[C@@H](Cc1ccccc1)C(=O)O; Ahp(2) = CCCCC[C@H](N)C(=O)O

Experiments:
[1] = target: T1, mouse FAP (Mus musculus, UniProt P97321); test: Surface plasmon resonance (SPR) for peptide affinity, mouse FAP; type: binding
T1 construct: biotinylated His, Avi tag, mouse FAP (26-761, FAP-M82Q5); His; Avi tag (biotinylated); purchased AcroBiosystems FAP-M82Q5
T1 sequence (P97321 26-761): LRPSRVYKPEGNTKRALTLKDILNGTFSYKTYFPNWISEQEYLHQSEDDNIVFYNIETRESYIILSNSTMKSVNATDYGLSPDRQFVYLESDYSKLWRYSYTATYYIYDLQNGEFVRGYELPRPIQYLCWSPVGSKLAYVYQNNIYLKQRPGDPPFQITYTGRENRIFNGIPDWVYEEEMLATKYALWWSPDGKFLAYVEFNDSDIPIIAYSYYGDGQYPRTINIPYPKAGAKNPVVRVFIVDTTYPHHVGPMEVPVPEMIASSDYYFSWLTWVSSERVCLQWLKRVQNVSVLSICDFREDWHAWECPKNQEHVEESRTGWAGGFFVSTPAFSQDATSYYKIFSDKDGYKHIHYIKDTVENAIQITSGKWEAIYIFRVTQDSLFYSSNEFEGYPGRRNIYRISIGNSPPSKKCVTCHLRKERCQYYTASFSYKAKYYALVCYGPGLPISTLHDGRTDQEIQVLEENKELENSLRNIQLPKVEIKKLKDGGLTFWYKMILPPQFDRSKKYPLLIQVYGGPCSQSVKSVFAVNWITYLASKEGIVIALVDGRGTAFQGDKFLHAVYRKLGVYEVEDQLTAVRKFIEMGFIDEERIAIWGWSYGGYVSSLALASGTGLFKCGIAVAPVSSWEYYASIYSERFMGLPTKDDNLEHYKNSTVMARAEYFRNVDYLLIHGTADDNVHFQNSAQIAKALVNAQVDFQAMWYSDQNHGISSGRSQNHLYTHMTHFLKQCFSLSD
Summary of the method: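 Biotinylated His/Avi-tagged FAP ectodomains (human 26-760, mouse 26-761) captured or immobilized on Biacore sensor chips; peptides run at 25 °C in HBS-EP+ pH 7.6 with 2% DMSO, single-cycle kinetics, 8 concentrations. KD from 1:1 binding-model fit of sensorgrams.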

[2] = target: T2, human FAP (Homo sapiens, UniProt Q12884); test: Surface plasmon resonance (SPR) for peptide affinity, human FAP; type: binding; settings: read-out: h. FAP, SPR, KD
T2 construct: the biotinylated His, Avi tag, human FAP (26-760, FAP-H82Q6); His; Avi tag (biotinylated); purchased AcroBiosystems FAP-H82Q6
T2 sequence (Q12884 26-760): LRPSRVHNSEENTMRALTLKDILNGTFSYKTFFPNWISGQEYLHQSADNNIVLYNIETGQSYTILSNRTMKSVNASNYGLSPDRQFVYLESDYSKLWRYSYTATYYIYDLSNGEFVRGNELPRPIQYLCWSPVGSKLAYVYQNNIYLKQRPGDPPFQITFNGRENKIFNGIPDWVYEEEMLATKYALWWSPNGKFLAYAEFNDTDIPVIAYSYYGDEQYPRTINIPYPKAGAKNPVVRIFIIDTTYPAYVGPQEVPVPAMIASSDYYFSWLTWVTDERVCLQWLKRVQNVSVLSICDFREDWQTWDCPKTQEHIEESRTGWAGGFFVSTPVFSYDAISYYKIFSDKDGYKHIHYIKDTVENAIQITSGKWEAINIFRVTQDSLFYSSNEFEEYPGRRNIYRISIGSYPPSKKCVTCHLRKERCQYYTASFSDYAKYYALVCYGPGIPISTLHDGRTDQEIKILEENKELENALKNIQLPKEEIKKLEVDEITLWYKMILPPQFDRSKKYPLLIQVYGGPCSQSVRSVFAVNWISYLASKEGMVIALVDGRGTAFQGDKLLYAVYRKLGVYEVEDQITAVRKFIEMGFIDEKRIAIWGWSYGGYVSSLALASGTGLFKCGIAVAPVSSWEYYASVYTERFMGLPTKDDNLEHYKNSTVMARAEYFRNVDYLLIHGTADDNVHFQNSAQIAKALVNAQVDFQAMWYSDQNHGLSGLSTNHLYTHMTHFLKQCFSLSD
Experimental: Peptide affinities (KD) were determined by SPR using a Biacore™ 8K device (Cytiva) towards the following proteins: biotinylated His, Avi tag, human FAP (26-760, FAP-H82Q6), biotinylated His, Avi tag, mouse FAP (26-761, FAP-M82Q5), His tag, human DPP4 (34-766, DP4-H82E3), all purchased from AcroBiosystems and His tag, mouse DPP4 (29-760, 954-SE) from R&D Systems. The FAP proteins and their homologous were diluted to a concentration of 2 μg/mL into acetate buffer pH 5.5, then immobilized onto a CM5 sensorchip (Cytiva, BR-1005-30) to reach a response around 2000 R U. The running buffer HBS-EP+pH 7.6 (20× from Teknova CAT. No: H8022) contained 10 mM HEPES pH 7.6, 150 mM NaCl, 3 mM EDTA, 0.05% Tween20 and 2% DMSO. Experiments were carried out at 25° C. using a flow rate of 30 μL/min. Compounds were tested in single cycle kinetic mode at 8 different concentrations. Curve fitting was performed using the Biacore™ 8K evaluation software. The sensorgrams were fitted by applying a 1:1 binding model to calculate kinetic rate constants and equilibrium dissociation constants (KD).
For this assay, the setup had the same conditions (flow rate, running buffer, peptide dilution) as described above for the CM5 method. The oligo CAP reagent obtained in the CAPture Kit (Ref. 28920234) was 1/5 diluted into running buffer and used with a contact time of 300 s at a flow rate of 2 μL/min. The human and mouse FAP constructs described above were used (from AcroBiosystems or produced in house). The FAP proteins were diluted to a concentration of 2 μg/mL into acetate pH 5.5, 0.05% Tween20 and used with a contact time of 600 s at a flow rate of 10 μL/min. The peptides were tested with an association time of 280 s followed by a dissociation time of 3000 s at a flow rate of 30 μL/min. The regeneration was done using the regeneration solution (8 M guanidine-HCl, 1 M NaOH) as obtained with a contact time of 270 s at a flow rate of 10 μL/min. […] The compounds marked with an asterisk were tested against human and mouse DDP4.

[3] = target: T2, human FAP; test: Enzymatic FAP competition assay (Z-Gly-Pro-AMC fluorescence), human FAP; type: biochemical; settings: read-out: h. FAP, Enz., IC50
Summary of the method: (§1)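 Biotinylated His/Avi-tagged FAP ectodomain (human 26-760, mouse 26-761) at 0.01 nM, preincubated 24 h with peptides (14 concentrations, up to 1 μM) in pH 7.5 phosphate, 150 mM NaCl, 0.05% Tween20, 1% DMSO. Then 50 μM Z-Gly-Pro-AMC, 4 h at 22-24° C; AMC fluorescence (380/460 nm) gave IC50 from duplicate points.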

[4] = target: T1, mouse FAP; test: Enzymatic FAP competition assay (Z-Gly-Pro-AMC fluorescence), mouse FAP; type: biochemical; settings: read-out: m. FAP, Enz., IC50
Summary of the method: as §1

Row | Substance | Kd [1] | Kd [2] | IC50 [3] | IC50 [4]
1 | Gly-Gly-NMePhe-F(4amPEG2NHDOTA-Lu)-Ahp-Trp-Gly-K(COpipzaa)-Asp-D-Pro (cyclo(GG[NMeF][F(4amPEG2NHDOTA-Lu)][Ahp(2)]WGK(COpipzaa)D[dP]); also: Lu complex) [Example C13] | 0.024 nM | < 0.011 nM | 0.004 nM | 0.011 nM
2 | Gly-Gly-NMePhe-F(4amPEG2NHDOTA-Lu)-Q(Pyrro(2CN4F2))-Trp-Gly-K(COpipzaa)-Asp-D-Pro (cyclo(GG[NMeF][F(4amPEG2NHDOTA-Lu)][Q(Pyrro(2CN4F2))]WGK(COpipzaa)D[dP]); also: Lu complex) [Example C19] | < 0.04 nM | < 0.018 nM | 0.018 nM | 0.031 nM
3 | Gly-Gly-NMePhe-F(4amPEG2NHDOTA-Lu)-hS(Pr)-Trp-Gly-K(COpipzaa)-Asp-D-Pro (cyclo(GG[NMeF][F(4amPEG2NHDOTA-Lu)][hS(Pr)]WGK(COpipzaa)D[dP]); also: Lu complex) [Example C2] | < 0.036 nM | < 0.008 nM | 0.009 nM | 0.023 nM
4 | Lys(DOTA-Lu)-Gly-NMePhe-Tyr-Ahp-Trp-Gly-Tyr-Asp-D-Pro (cyclo(K(DOTA(Lu))G[NMeF]Y[Ahp(2)]WGYD[dP]); also: Lu complex) [Example C22] | 0.64 nM | 0.41 nM | 0.43 nM | 1.1 nM
